Laboratory results: patent US20240084003A1 (SIMCERE ZAIMING PHARMACEUTICAL, published 2024)
Positions count from the first letter of the chain named.

T1: monkey CD22 protein (ACROBiosystems, catalog number SI2-R52Ha) (monkey, UniProt F6W485 20-688)
T1 construct: commercial protein; also called monkey CD22-ECD; monkey CD22-ECD-His
T1 sequence: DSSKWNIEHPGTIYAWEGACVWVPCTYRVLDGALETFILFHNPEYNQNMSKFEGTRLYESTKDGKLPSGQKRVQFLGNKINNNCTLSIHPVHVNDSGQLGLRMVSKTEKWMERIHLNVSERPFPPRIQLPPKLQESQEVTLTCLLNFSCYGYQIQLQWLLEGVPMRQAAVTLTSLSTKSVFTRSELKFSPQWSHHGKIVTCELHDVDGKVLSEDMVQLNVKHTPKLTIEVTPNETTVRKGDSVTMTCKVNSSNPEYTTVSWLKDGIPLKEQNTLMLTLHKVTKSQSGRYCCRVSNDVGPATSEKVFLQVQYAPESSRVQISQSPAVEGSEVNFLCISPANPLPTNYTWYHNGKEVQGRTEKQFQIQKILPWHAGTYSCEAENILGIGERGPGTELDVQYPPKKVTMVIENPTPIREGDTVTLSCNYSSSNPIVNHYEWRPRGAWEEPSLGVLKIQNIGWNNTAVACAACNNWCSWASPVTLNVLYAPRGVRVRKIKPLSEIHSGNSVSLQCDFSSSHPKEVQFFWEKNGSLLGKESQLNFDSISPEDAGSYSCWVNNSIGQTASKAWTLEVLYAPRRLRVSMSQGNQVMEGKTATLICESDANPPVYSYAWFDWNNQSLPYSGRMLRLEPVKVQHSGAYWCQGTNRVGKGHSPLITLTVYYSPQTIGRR

B1: F2.343.16 (antibody, human IgG1, lambda, V domains shown)
VH: QVQLKQSGPGLVQPSQSLSITCTVSGFSLTGYGVQWVRQSPGKGLEWLGVIWGGGGTDYNAAFISRLNIIKDNSKSQVFFKMNSLQADDTAIYYCARYSKYGHFDVWGTGTAVTVSS
VL: QAVVTQESALTTSPGETVTLTCRSSTGAVTTSNYANWVQEKPDHLFTGLIGGTYNRVPGVPARFSGSLIGDKAALTITGAQTEDEAIYFCALWYSNHFWVFGGGTKLTVLG
notes: human-murine chimeric IgG1 lambda; VL name legible
B2: F2.55.1 (antibody, human IgG1, lambda, V domains shown)
VH: QVTLKESGPGILQPSQTLSLTCSFSGFSLSTFPLGVGWIRQPSGKGLEWLAHVWWNDDDYYNPALKSRLTISKDTSNTRVFLSVASVDTAETATYYCARLNWDRWYFDVWGTGTTVTVSS
VL: QLVLTQSSSASFSLGASAKLTCTLSSQHSAYTVEWYQQQPLKPPKYVMELKKDGSHSTGDGIPDRFSGSSSGADRYLSISNIQPEDEAIYICGVGDTVKEQFVFGGGTKVTVLG
notes: as for B1
B3: F2.121.9 (antibody, human IgG1, lambda, V domains shown)
VH: EVQLVESGGGLVKPGGSLKLSCAASGFTFSDYVMSWIRQTPEKRLEWVATISDAGSYTFYPDNLKGRFTISRDNAKNNLYLQMNHLTSEDTAFYYCAIIYFGNYGGYWGQGTLVTVSV
VL: QAVVTQESALTTSPGGTVVLTCRSNTGAVTTSNYANWVQEKPDHLFTGLIGGTSNRAPGVPVRFSGSLIGDKAALTITGAQTEDDAMYFCALWYSTHWVFGGGTKLTVLG
notes: human-murine chimeric IgG1 lambda
B4: F2.70.2 (antibody, human IgG1, lambda, V domains shown)
VH: EVQLVESGGGLVKPGGSLKLSCAASGFTFSDYGMNWFRQAPEKGLEWVAYISRGSHTIYYADTVKGRFTISRDNAKNTLFLQMTSLRSNDTAMYYCVRMAGYYAMDYWGQGTSVTVSS
VL: QLVLTQSSSASFSLGASAKLTCTLSSQHSSYIIEWYQQQPLKPPKYVMELKKDGSHSTGDGIPDRFSGSSSGADRYLSISNIQPEDEAIYICGVGDTIKEQFVYVFGGGTKVTVLG
notes: as for B3
B5: F2.173.9 (antibody, human IgG1, lambda, V domains shown)
VH: EVQLVESGGDLVKPGESLKLSCEASGFTFSNYAMSWVRQTPDRRLEWVATISSIGSFTYYSDSVKGRFTISRDNVKSTLHLQMNNLKSGDTAIYFCARLGVYFDSWGQGTTLTVSS
VL: B4 VL with S30T, I32T, L41H, Y46F, L50I, S57Y, A88T, G95S, T97M, E100D
notes: as for B3
B6: F2.180.16 (antibody, human IgG1, lambda, V domains shown)
VH: EVKLVESGGGLVLPGGSLKISCAASGFTFSDYYMYWIRQTPDKRLEWVAYISNTGYSTFYPDSVKGRFTVSRDNAKNTLYLQMSRLQSEDTAMYYCARHGILYAMDYWGQGTSVTVSS
VL: B4 VL with L2P, H28Y, S30T, I32T, E34G, K52H, H56R, S57H, I89T, V103M
notes: as for B3
B7: F2.104.10 (antibody, human IgG1, lambda, V domains shown)
VH: B4 VH with L11F, K76E, V114L
VL: B4 VL with L50V, P84S
notes: as for B3
B8: HA22-hIgG1 (antibody, V domains shown)
VH: EVQLVESGGGLVKPGGSLKLSCAASGFAFSIYDMSWVRQTPEKCLEWVAYISSGGGTTYYPDTVKGRFTISRDNAKNTLYLQMSSLKSEDTAMYYCARHSGYGTHWGVLFAYWGQGTLVTVSA
VL: DIQMTQTTSSLSASLGDRVTISCRASQDISNYLNWYQQKPDGTVKLLIYYTSILHSGVPSRFSGSGSGTDYSLTISNLEQEDFATYFCQQGNTLPWTFGCGTKLEIKR
B9: F2.205.9 (antibody, human IgG1, lambda, V domains shown)
VH: QVTLKESGPGILQPSQTLSLTCSFSGFSLSTSGMGVGWIRQPSGKGLEWLAHIWWDDDEYYNPALKSRLTISKDTSKNQVFLKIANVDTADTATYYCARISIPYGYYDWFFDVWGTGTTVTVSA
VL: QAVVTQESALTTSPGETVTLTCRSSTGAVTTRNYANWVQEKPDHLFTGLIGGTNNRAPGVPARFSGSLIGDKAALTITGAQTEDEAIYFCALWYSNHFIFGSGTKVTVLG
notes: as for B1
B10: F2.151.13 (antibody, human IgG1, lambda, V domains shown)
VH: QVHLQQPGTELMKPGASVKLSCKATGYTFRDYWLEWVKQRPGHGLEWIGEILPGSGNAYYNEKFKGKATFTADTSSNTAYMQLSSLTTEDSAIYYCARVYSNWYFDAWGKGTTVTVSS
VL: B9 VL with R32S, R56Q, T78S, Y94F, F98W, I99V, S102G, V106L
notes: as for B3

Columns and labels:
[1] = target: T2, CD22 on cynomolgus monkey peripheral blood B cells (cynomolgus monkey (Macaca fascicularis)); experiment: FACS, cynomolgus PBMC, CD20+ B cells, antibody 10 nM
T2 construct: whole, on cells; also called cynomolgus monkey B cells
Outline: (§1)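 Fresh cynomolgus PBMC isolated on Ficoll were co-incubated with chimeric antibody and anti-human CD20 (monkey cross-reactive, BV605) for 1 h at room temperature, then APC anti-human IgG Fc for 30 min in the dark. By flow cytometry, value is the percentage of antibody-positive cells within gated CD20+ B cells.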

[2] = target: T2, CD22 on cynomolgus monkey peripheral …; experiment: FACS, cynomolgus PBMC, CD20+ B cells, antibody 1 nM
Outline: as §1

[3] = target: T1, monkey CD22 protein (ACROBiosystems, …); experiment: ELISA, coated monkey CD22 protein, antibody 0.00001 nM
Outline: (§2)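 Read-out is TMB absorbance after a 30 min room-temperature development stopped with 1.0 N HCl. It reflects chimeric antibody bound to plate-coated CD22 (2 μg/mL), detected with an HRP-labelled secondary antibody. Antibody and secondary incubations each ran 2 h at 37° C.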

[4] = target: T1, monkey CD22 protein (ACROBiosystems, …); experiment: ELISA, coated monkey CD22 protein, antibody 0.001 nM
Outline: as §2

[5] = target: T2, CD22 on cynomolgus monkey peripheral …; experiment: FACS, cynomolgus PBMC, CD20+ B cells, antibody 100 nM
Outline: as §1

[6] = target: T1, monkey CD22 protein (ACROBiosystems, …); experiment: ELISA, coated monkey CD22 protein, antibody 10 nM
Outline: as §2

[7] = target: T1, monkey CD22 protein (ACROBiosystems, …); experiment: ELISA, coated monkey CD22 protein, antibody 0.1 nM
Outline: as §2

[8] = target: T1, monkey CD22 protein (ACROBiosystems, …); experiment: ELISA, coated monkey CD22 protein, antibody 0.0001 nM
Outline: as §2

[9] = target: T1, monkey CD22 protein (ACROBiosystems, …); experiment: ELISA, coated monkey CD22 protein, antibody 100 nM
Outline: as §2

[10] = target: T1, monkey CD22 protein (ACROBiosystems, …); experiment: ELISA, coated monkey CD22 protein, antibody 0.01 nM
Outline: as §2

| Binder | Proportion of chimeric antibody positive cells to B cells (%) [1] | Proportion of chimeric antibody positive cells to B cells (%) [2] | OD450 [3] | OD450 [4] | Proportion of chimeric antibody positive cells to B cells (%) [5] | OD450 [6] | OD450 [7] | OD450 [8] | OD450 [9] | OD450 [10] |
| --- | --- | --- | --- | --- | --- | --- | --- | --- | --- | --- |
| B1 | 21% | 21% | 0.05 OD450 | 0.05 OD450 | 22% | 0.06 OD450 | 0.05 OD450 | 0.05 OD450 | 0.08 OD450 | 0.05 OD450 |
| B2 | 28% | 22% | 0.06 OD450 | 0.18 OD450 | 66% | 2 OD450 | 1.73 OD450 | 0.07 OD450 | 1.91 OD450 | 0.85 OD450 |
| B3 | 56% | 27% | 0.05 OD450 | 0.06 OD450 | 64% | 0.56 OD450 | 0.34 OD450 | 0.05 OD450 | 0.72 OD450 | 0.13 OD450 |
| B4 | 20% | 20% | 0.06 OD450 | 0.07 OD450 | 34% | 0.08 OD450 | 0.06 OD450 | 0.06 OD450 | 0.11 OD450 | 0.06 OD450 |
| B5 | 43% | 19% | 0.06 OD450 | 0.12 OD450 | 71% | 1.12 OD450 | 1.25 OD450 | 0.06 OD450 | 1.18 OD450 | 0.38 OD450 |
| B6 | 20% | 16% | 0.05 OD450 | 0.05 OD450 | 23% | 0.06 OD450 | 0.05 OD450 | 0.05 OD450 | 0.06 OD450 | 0.05 OD450 |
| B7 | 21% | 19% | 0.05 OD450 | 0.05 OD450 | 26% | 0.07 OD450 | 0.05 OD450 | 0.05 OD450 | 0.07 OD450 | 0.06 OD450 |
| B8 | 89% | 33% | 0.08 OD450 | 0.47 OD450 | 93% | 2.41 OD450 | 2.24 OD450 | 0.14 OD450 | 2.2 OD450 | 1.54 OD450 |
| B9 | 41% | 40% | 0.08 OD450 | 0.63 OD450 | 46% | 2.28 OD450 | 2.21 OD450 | 0.16 OD450 | 2.33 OD450 | 1.78 OD450 |
| B10 | 48% | 38% | 0.07 OD450 | 0.27 OD450 | 60% | 1.89 OD450 | 1.6 OD450 | 0.1 OD450 | 2.77 OD450 | 0.94 OD450 |
